Molecular target: Smlt3024 (Stenotrophomonas maltophilia K279a) (UniProt B2FJJ5)
Assay: SEC-MALS; Superdex 200 10/300 GL coupled to a Wyatt MALS detector; isolated proteins and their mixture analysed, peaks checked by SDS-PAGE; dn/dc = 0.185 mL/g

With Smlt3025_(86-333) (domain or fragment) as the substance, how does the stoichiometry N (Smlt3024:Smlt3025 (86-333) ratio) read?
Its stoichiometry N (Smlt3024:Smlt3025 (86-333) ratio) is 1.
